{
  "source": "the nanobody polyreactivity screen of Harvey et al. (2022)",
  "data": [
    {"assay": "yeast display, Sf9 membrane polyspecificity reagent, FACS + sequencing; frameworks hold sequencing errors", "outline": "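Nanobodies came from a synthetic yeast display library in Saccharomyces cerevisiae BJ5465, induced with galactose for 36–48 hours and stained for 1 hour at 4 °C with 10% biotinylated, detergent-solubilized Sf9 membrane reagent. Cells were enriched on streptavidin microbeads and then FACS-sorted, with low and high (top ~1%) gates set on anti-HA fluorescence for expression and streptavidin fluorescence for reagent binding. Each polyreactivity label reflects the gate a clone came from. Genes were amplified by colony PCR, sequenced by MiSeq 2 × 250 and filtered by CDR length.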", "values": [
      {"sequence": "PVQLVESGGGLVQAGGSLRLSCAASGFIFRRNAMGWYRQAPGKERELVASIRSGGSTKYADSVKGRFTISRDNAKNTVYLQMTSLKPEDTAVYYCNAEDPGYAVRWYWFKYDYWGQGTQVSVSS", "polyreactivity (PSR sort gate)": "low polyreactivity"},
      {"sequence": "PVQLVESGGGLVQAGGSLRLSCAASGNAMGWYRQAPGKERELVASINRSGGRTYYADSVKGRFTISRDNAKNTVYLQMNSLKPEDTAVYYCAARPHYDSDYWGQGTQVTVSS", "polyreactivity (PSR sort gate)": "low polyreactivity"},
      {"sequence": "PVQLVESGGGLVQAGGSLRLSCAASGRIFKPYAMGWYRQAPGKERELVAAISGSGTRTYYADSVKGRFTISRANAKNTVYLQMNSLKPEDTAVYFCAAAYYSTYRNRMDYWGQGTQVTVSS", "polyreactivity (PSR sort gate)": "high polyreactivity"},
      {"sequence": "PVQLVESGGGLVQAGGSLRLSCAASGRILPSNAMGWYRQAPGKERELVAGITSGGSTDYADSVKGRFTISRDNAKNTVYLQMNSLNPVDTAVYYCAARYFHHYWGDLEVEFEYWGQGTQVTVSS", "polyreactivity (PSR sort gate)": "low polyreactivity"},
      {"sequence": "PVQLVESGGGLVQAGGSLRLSCAASGSIFPSYAMGWYRQAPGKERELVATIGRGGTTNYADSVKGRFTISRDNAKNTVYLQKNSLKPEDTGVYYCNAERIWRYKYGYDYWGQGTQVTVSS", "polyreactivity (PSR sort gate)": "high polyreactivity"},
      {"sequence": "PVQLVESGGGLVQAGGSLRLSCAASGSIFVTYAMGWYRQAPGKERELVATITYSGGSTSYADSVKGRFTISRDNAKNTVYLQMNSLKPEDTAVYYCAADLDSDFDYWGQGTQVTVSS", "polyreactivity (PSR sort gate)": "low polyreactivity"},
      {"sequence": "PVQLVESGGGLVQAGGSLRLSCADSGSIFRKYARGWYRQAPGKERELVAAITYGGSSTYYADSVKGRFTISRDNAKKTVYLQRNSLKPQDTAVYYFINDRPSYPAYGHTQYVVQMDYWGQGTQVTVSS", "polyreactivity (PSR sort gate)": "low polyreactivity"},
      {"sequence": "PVQLVESGGGLVQAGGSLRLTCAASGRIFTGYAMGWYRQAPGKERELVAAISRGGSTNYADSVKGRFTISRDNEKNTVYLLMNSLKPEDTAFYYCAAGFDWDRGDYWGQGTQVTVSS", "polyreactivity (PSR sort gate)": "low polyreactivity"},
      {"sequence": "PVQLVESGVCLVQAGGSLRLSCATPGSTIDFYAMGWYRQAPGKERELVARISSGGGRTYYADSVKGRFTISRDNAKNTVYLQMISLKPEDTAVYYCAAAYWYLDYYWGQGTQVTVSS", "polyreactivity (PSR sort gate)": "low polyreactivity"},
      {"sequence": "PVQLVVSGGGLVQAGGSLRLRGAASGSSFSQNAMGWSRPAPGKDRELVAAITSGGITYYADSVKGRFTISRDNAKNTVYLQMNSLKPEDTAVYDCAADYWPSGRGVAFDYWGQGTQVTVSS", "polyreactivity (PSR sort gate)": "low polyreactivity"},
      {"sequence": "PVQRVESGGGLVQAGGSLRLSCAASGRTFDSYAMGWYRQAPGKERELVAAISSRGTRTYYADSVKGRFTSSRDNAKNPVYLQINSLQPEDTAGYYCNAGGAYEYDYWGQGSQVTVSS", "polyreactivity (PSR sort gate)": "high polyreactivity"},
      {"sequence": "QAQLQESAGSLVQAGGGLRLSCAASGYISVGSVKGWYRQAPSKERELVASIDQGANTNYADSVKGRFTISRDNAKNNVYLQMNSLIPEDTAVYYCATETTYILNYWGQGTQVTVSS", "polyreactivity (PSR sort gate)": "low polyreactivity"},
      {"sequence": "QAQLQESGGGLVQAGGSLPRSCAPSGSIFRFSGMGWYRRAPGKERELVASIGFGSITYYEDRVKGRFTISRDNANNTVYLQMNSLKPEDTAVYYCAVQVQDDSWLDYWGQGTQVTVSC", "polyreactivity (PSR sort gate)": "low polyreactivity"},
      {"sequence": "QAQLQESRGSVVQAGLGLRLSCAASGYISVGSVMGWYRQAPSKERELVASIDQGANTNYADSVKGRFTISRDNAKNNVYLQMISLKPEDTEVYYCATETTYILNYWGQGSQVTVSS", "polyreactivity (PSR sort gate)": "low polyreactivity"},
      {"sequence": "QAQLVESGGGLVQAGGSLRLSCAASGSIFVAYDKGWYREAPWKERELVAAINFDGTSTYYADSVKGRFTISRDNAKNTVYLQMNSLKPEDTAVYYCNKRVSPTFTGQYDYWGQGTQVTVSS", "polyreactivity (PSR sort gate)": "low polyreactivity"},
      {"sequence": "QCQLVESGGGLVQAGGSLLLSCAASGFIFNRNAMGWSRQAPGKEREFVSAISTLGAGTYYADSVKGRFTISRDNAKNTVYLQMNSLKPEDTAVYYCAADIFRYGYYNRYSKVGYDYWGQGTQVTVSS", "polyreactivity (PSR sort gate)": "high polyreactivity"},
      {"sequence": "QDHLVESGGGLVQAGGSLRLSCAASGFLFSQNVMGWYRQAPGKERELVAAISSGSRTYYADSVKGRFTISRDNAKNTVYLQMISLKPEDTAVYYCATDARVGGYVSEGDYWGLGTQVTVSS", "polyreactivity (PSR sort gate)": "low polyreactivity"}
    ]}
  ]
}
